Read-outs that look alike come from different tables or passages of the source.
Legend:
Assay in all cases: BLI with recombinant Fabs, drawn table of KD (µM)
[1] = molecular target: RaTG13
[2] = molecular target: T1, SARS-2 RBD (wild-type SARS-CoV-2 receptor binding domain, monomer) (SARS-CoV-2, UniProt P0DTC2 319-529)
[3] = molecular target: SHC014
[4] = molecular target: T2, SARS-1 RBD (SARS-CoV receptor binding domain, monomer) (SARS-CoV (SARS-1), UniProt P59594 306-515)
[5] = molecular target: T3, WIV1 RBD (WIV1-CoV receptor binding domain, monomer) (WIV1-CoV)
[6] = molecular target: RaTG13; remark: listed apart in the source
[7] = molecular target: T1, SARS-2 RBD (wild-type SARS-CoV-2 …); remark: listed apart in the source
[8] = molecular target: SHC014; remark: listed apart in the source
[9] = molecular target: T2, SARS-1 RBD (SARS-CoV receptor binding …); remark: listed apart in the source
[10] = molecular target: T3, WIV1 RBD (WIV1-CoV receptor binding …); remark: listed apart in the source

| Binder | Kd [1] | Kd [2] | Kd [3] | Kd [4] | Kd [5] | Kd [6] | Kd [7] | Kd [8] | Kd [9] | Kd [10] |
| --- | --- | --- | --- | --- | --- | --- | --- | --- | --- | --- |
| Ab19 Fab (Fab, V domains shown) VH: QVQLQQSGAELARPGASVKLSCKASGYPFTSYGINWVKQRTGQGLEWIGEIYPRIGNTYYNEKFKGKATLTADKSSSTAYMEFRSLTSEDSAVYFCARSWNSNYGEYYFDYWGQGTTLTVS VL: DIVMTQSHKFMSTSIGDRVSITCKASHDVSTAVAWYQQKPGQSPKLLIYWASTRHTGVPDRFTGSGSGTDYTLTIRSVQAEDLALYYCQQHYSTPYTFGGGTKLEIK | > 100000 nM | 2000 nM | > 100000 nM | > 100000 nM | > 100000 nM | > 100000 nM | 2000 nM | > 100000 nM | > 100000 nM | > 100000 nM |
| Ab20 Fab (Fab, V domains shown) VH: EVQLQQSGPELVKPGASVKISCKASGFSFTGYSMNWMKQSPEKSLEWIGEINPTTGGTTYNQKFKAKATLTVDKSSSTAYIQLKSLTSEDSAVYYCARGRADYWGQGTTLTVSS VL: DIVLTQSPASLAVSLGQRATISCRASESVEYYGTGLVQWFQQKPGQPPKLLIYAASNVESGVPARFSGSGSGTDFSLNIHSVEEDDIAMYFCHQSRKLPWTFGGGTKLEIK | > 100000 nM | 30 nM | > 100000 nM | > 100000 nM | > 100000 nM | > 100000 nM | – | > 100000 nM | > 100000 nM | > 100000 nM |
| Ab15 Fab (Fab, V domains shown) VH: EVQLQQSGPELVKPGASVKISCKASGYSFTGYYMNWVKQSPEKSLEWIGEINPNFGGTTYNQKFKAKATLTVDKSSSTAYMQLKSLTSEDSAVYYCARYYGNLYAMDYWGQGTSVTVS VL: DILMTQSPSSMSVSLGDTVSITCHASQGISSNIGWLQQKPGKSFKGLIYHGTNLEDGVPSRFSGSGSGAAYSLTISSLESEDFADYYCVQYTHFPYTFGGGTKLEIK | 1200 nM | 1100 nM | – | – | – | 1200 nM | 1100 nM | – | – | – |
| Ab16 Fab (Fab, V domains shown) VH: EVQLQQSGPELVKPGASVKISCKASGYSFNNYYMNWVKQSPEKSLEWIGEINPNSGYTSYNQKFRAKATLTVDKSSTTAYMQLKSLTSEDSAVYYCARYFGNLFAMDFWGQGTSVTVS VL: DILMTQSPSSMSVSLGDTVSITCHASQGIGSNIGWLQQKPGKSFKGLIYLGTNLEDGVPSRFSGSGSGADYSLTISSLESEDFADYYCVQYVQFPYTFGGGTKLEIK | 200 nM | 30 nM | 90 nM | 100 nM | 210 nM | – | – | – | – | – |
| Ab17 Fab (Fab, V domains shown) VH: EVQLQQSGPELVKPGASVKISCKASGYSFTDYYMNWVKQSPEKSLEWIGEINPNTGGTTYNQKFKAKATLTVDKSSSTAYMQLKSLTSEDSAVYYCARYYGNLYAMDYWGQGTSVTVSS VL: DILMTQSPSSMSVSLGDTVSITCHASQGISSNIGWLQQKPGKSFKGLIYHGTNLEDGVPSRFSGSGSGADYSLTISSLESEDFADYYCVQYVQFPYTLGGGTKLEIK | 180 nM | 70 nM | 90 nM | 80 nM | 370 nM | – | – | – | – | – |
